The target of this data set is holo-PhuS H209A (Pseudomonas aeruginosa PAO1, UniProt O68880 1-354, H209A). As to the kind of experiment: EMSA. Background: Mobility shift assays separate free from complexed probe on a gel.

B1: prrF1-50 (5'-biotin) (dsDNA)
DNA 1: AGCAGAAAAGTTTGGCGAAAGCGTTTGACATGGAAATGAGAATCATTATT
DNA 2: AATAATGATTCTCATTTCCATGTCAAACGCTTTCGCCAAACTTTTCTGCT
Regarding B1, the binding result is given as “binds”.

The values above are taken from article PMC12033910.
